The source of these data is paper PMC7483736, “Catalytic specificity of the Lactobacillus plantarum cystathionine γ-lyase presumed by the crystallographic analysis” (Scientific Reports, 2020).

Data set [1] has as its target T1, L. plantarum CGL (Lactiplantibacillus plantarum, UniProt F9UT53, K194A).
T1 construct: gene cblB; C-terminal His6 tag (kept), pET-21a(+), E. coli BL21(DE3); homotetramer, active site between two subunits; PCR primers (translated) give N-terminus MRTLTMKFETQ and C-terminus FASIQAD before LE-His6
The experiment in a line: X-ray crystal structure, […] Å. As to conditions: covalent; external aldimine with PLP at active site, inactive mutant. It counts as binding.

The target in data set [2] is T1, L. plantarum CGL. The experiment in a line: X-ray crystal structure, […] Å. As to conditions: covalent; external aldimine with PLP, substrate analogue, phosphate at distal carboxyl site. In kind it is binding.
For data set [3], the target named is K194A mutant of L. plantarum CGL (cystathionine γ-lyase from Lactobacillus plantarum SN35N) (Lactobacillus plantarum SN35N). The data set can be described thus: crystal structure; K194A CGL at 9 mg/mL with PLP and 2 mM cystathionine or 2 mM L-serine; sitting-drop vapor diffusion, precipitant 0.4 M KH2PO4 and 0.4 M Na2HPO4; tetramer seen in the crystal.
Substrate in the data set “DTNB thiol release, A412”: N[C@@H](CCSC[C@H](N)C(=O)O)C(=O)O
The data set can be described thus: DTNB thiol release, A412. It counts as biochemical, Lactiplantibacillus plantarum. As to conditions: cystathionase, 100 mM HEPES-KOH pH 7.5, 0.5 mM DTNB, 37 °C. The source says: DTNB thiol release, A412 on L. plantarum CGL

Substrate in data set [4]: N[C@@H](CCS)C(=O)O
The experiment in a line: H2S release as PbS, A390. In kind it is biochemical, Lactiplantibacillus plantarum. As to conditions: L-homocysteine gamma-lyase. From the text:
(§1) H2S release as PbS, A390 on L. plantarum CGL

Substrate in data set [5]: N[C@@H](CS)C(=O)O
The experiment in a line: H2S release as PbS, A390. It counts as biochemical, Lactiplantibacillus plantarum. As to conditions: L-cysteine beta-lyase, 100 mM HEPES-KOH pH 7.5, 5 mM TCEP, 0.4 mM lead(II) nitrate, 37 °C.
Excerpt: as §1

Substrate in data set [6]: N[C@@H](CSSC[C@H](N)C(=O)O)C(=O)O
The experiment in a line: lactate dehydrogenase-coupled pyruvate formation, NADH A340. It counts as biochemical, Lactiplantibacillus plantarum. Particulars: L-cystine beta-lyase, 100 mM HEPES-KOH pH 7.5, 0.2 mM NADH, 37 °C. From the text:
lactate dehydrogenase-coupled pyruvate formation, NADH A340 on L. plantarum CGL

Where [7] appears, read: 100 mM HEPES-KOH pH 7.5, 5 mM TCEP, 0.4 mM lead(II) nitrate, 37 °C.
[8] abbreviates: buffer same, fitted with substrate inhibition, called inaccurate by authors.

T1 sequence (F9UT53 entry or part of it K194A): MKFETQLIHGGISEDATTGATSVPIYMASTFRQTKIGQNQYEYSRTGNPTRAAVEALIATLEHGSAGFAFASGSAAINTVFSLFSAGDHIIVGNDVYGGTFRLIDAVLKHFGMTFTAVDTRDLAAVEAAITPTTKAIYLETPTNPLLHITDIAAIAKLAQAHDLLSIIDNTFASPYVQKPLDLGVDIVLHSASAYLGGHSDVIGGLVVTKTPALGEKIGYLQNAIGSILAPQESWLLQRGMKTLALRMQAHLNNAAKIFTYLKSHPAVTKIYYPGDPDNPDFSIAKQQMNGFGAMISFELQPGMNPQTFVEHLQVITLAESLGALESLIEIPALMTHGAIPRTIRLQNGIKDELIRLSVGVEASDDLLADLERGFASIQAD

As to `N[C@@H](CCSC[C@H](N)C(=O)O)C(=O)O` [cystathionine], the “X-ray crystal structure, 3.10 Å” value at L. plantarum CGL [1] is given as “Cystathionine was found in the crystal structure as a part of the external aldimine”.
As for `N[C@@H](CO)C(=O)O` [L-serine], on L. plantarum CGL [2], the “X-ray crystal structure, 2.75 Å” value is “L-serine was also found as part of the external aldimine formed with PLP”.
“K194A mutant of L. plantarum CGL (cystathionine γ-lyase from Lactobacillus plantarum SN35N) (enzyme)” registered a stoichiometry N in data set [3] of 4.

B1: L. plantarum CGL (Lactiplantibacillus plantarum WCFS1) (protein)
chain: MKFETQLIHGGISEDATTGATSVPIYMASTFRQTKIGQNQYEYSRTGNPTRAAVEALIATLEHGSAGFAFASGSAAINTVFSLFSAGDHIIVGNDVYGGTFRLIDAVLKHFGMTFTAVDTRDLAAVEAAITPTTKAIYLETPTNPLLHITDIAAIAKLAQAHDLLSIIDNTFASPYVQKPLDLGVDIVLHSASKYLGGHSDVIGGLVVTKTPALGEKIGYLQNAIGSILAPQESWLLQRGMKTLALRMQAHLNNAAKIFTYLKSHPAVTKIYYPGDPDNPDFSIAKQQMNGFGAMISFELQPGMNPQTFVEHLQVITLAESLGALESLIEIPALMTHGAIPRTIRLQNGIKDELIRLSVGVEASDDLLADLERGFASIQAD
notes: C-terminal His6 tag (kept), pET-21a(+), E. coli BL21(DE3); homotetramer, active site between two subunits; PCR primers (translated) give N-terminus … and C-terminus FASIQAD before LE-His6
For B1, the Michaelis-Menten constant (Km) in the data set “DTNB thiol release, A412” is recorded as 0.45 ± 0.01 mM; in the data set “H2S release as PbS, A390 [4]” (setting [7]), 6.3 ± 0.7 mM; in “H2S release as PbS, A390 [5]” it was 35 ± 6 mM; in data set [6], 0.12 ± 0.01 mM. Also, the turnover number (kcat) in the data set “DTNB thiol release, A412” is 0.49 ± 0.01 s⁻¹; in the data set “H2S release as PbS, A390 [4]” (setting [7]), 0.081 ± 0.004 s⁻¹; in “H2S release as PbS, A390 [5]”, 0.3 ± 0.03 s⁻¹; in data set [6], 0.12 ± 0.01 s⁻¹. In addition, the kcat/Km in the data set “DTNB thiol release, A412” amounted to 1100 ± 100 M⁻¹ s⁻¹; in the data set “H2S release as PbS, A390 [4]” (setting [7]), 13 ± 1 M⁻¹ s⁻¹; in “H2S release as PbS, A390 [5]” it was 8.6 ± 1.8 M⁻¹ s⁻¹; in data set [6] it was 1000 ± 100 M⁻¹ s⁻¹.

B2: L. plantarum CGL (Lactiplantibacillus plantarum WCFS1; Y97F) (protein)
chain: MKFETQLIHGGISEDATTGATSVPIYMASTFRQTKIGQNQYEYSRTGNPTRAAVEALIATLEHGSAGFAFASGSAAINTVFSLFSAGDHIIVGNDVFGGTFRLIDAVLKHFGMTFTAVDTRDLAAVEAAITPTTKAIYLETPTNPLLHITDIAAIAKLAQAHDLLSIIDNTFASPYVQKPLDLGVDIVLHSASKYLGGHSDVIGGLVVTKTPALGEKIGYLQNAIGSILAPQESWLLQRGMKTLALRMQAHLNNAAKIFTYLKSHPAVTKIYYPGDPDNPDFSIAKQQMNGFGAMISFELQPGMNPQTFVEHLQVITLAESLGALESLIEIPALMTHGAIPRTIRLQNGIKDELIRLSVGVEASDDLLADLERGFASIQAD
notes: as for B1
For the molecule B2, the Michaelis-Menten constant (Km) was determined as 0.77 ± 0.21 mM in the data set “DTNB thiol release, A412”; 1.2 ± 0.8 mM in “H2S release as PbS, A390 [4]” (setting [8]); 0.16 ± 0.03 mM in “H2S release as PbS, A390 [5]” (pH 7.5); 0.056 ± 0.009 mM in data set [6]. For the same molecule, the kcat in “DTNB thiol release, A412” was found to be 0.0056 ± 0.0007 s⁻¹; in the data set “H2S release as PbS, A390 [4]” (setting [8]) it was 0.042 ± 0.02 s⁻¹; in the data set “H2S release as PbS, A390 [5]” (pH 7.5) it was 0.015 ± 0.001 s⁻¹; in data set [6], 0.1 ± 0.01 s⁻¹. Moreover, the kcat/Km in the data set “DTNB thiol release, A412” was 7.2 ± 2.2 M⁻¹ s⁻¹; in “H2S release as PbS, A390 [4]” (setting [8]), 35 ± 27 M⁻¹ s⁻¹; in “H2S release as PbS, A390 [5]” (pH 7.5), 96 ± 18 M⁻¹ s⁻¹; in data set [6], 1800 ± 300 M⁻¹ s⁻¹.

One may read the stoichiometry N as a count of units in the complex or per binding partner. For orientation: Km means the concentration of substrate that gives half-maximal velocity. A word on the kcat: it is the number of substrate molecules converted per active site and unit of time at saturation. What is called kcat/Km is the second-order rate constant that governs catalysis at low substrate concentration.
